From patent US20200281977A1 (HUMANITAS MIRASOLE S P A, published 2020)

Target: T1, IL-18Rα, human (human, UniProt Q13478 19-541)
T1 construct: whole, on cells; Detected on human NK cells with mouse monoclonal anti-IL-18Rα (Clone 70625; R&D Systems); also called IL-1R5/IL-18R
T1 sequence (looked up): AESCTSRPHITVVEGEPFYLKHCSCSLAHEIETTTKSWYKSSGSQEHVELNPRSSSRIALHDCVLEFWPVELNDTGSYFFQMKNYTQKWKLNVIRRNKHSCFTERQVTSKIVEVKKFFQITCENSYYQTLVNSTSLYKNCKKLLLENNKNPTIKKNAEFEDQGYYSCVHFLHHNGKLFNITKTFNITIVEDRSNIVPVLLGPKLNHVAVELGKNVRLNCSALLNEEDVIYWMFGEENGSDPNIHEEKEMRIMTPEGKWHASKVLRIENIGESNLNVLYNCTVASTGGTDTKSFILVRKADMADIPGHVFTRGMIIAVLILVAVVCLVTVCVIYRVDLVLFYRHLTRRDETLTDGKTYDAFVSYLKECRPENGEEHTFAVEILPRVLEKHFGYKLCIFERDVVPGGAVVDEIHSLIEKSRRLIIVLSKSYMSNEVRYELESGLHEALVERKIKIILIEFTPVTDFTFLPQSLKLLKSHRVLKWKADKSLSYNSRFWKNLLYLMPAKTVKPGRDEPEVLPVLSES
Experiment: STED microscopy of human NK cells stimulated with IL-18, co-stained with anti-IL-1R8 and anti-IL-18Rα antibodies
Experimental: Human NK cells were enriched and left to adhere on poly-D-lysine (Sigma-Aldrich)-coated coverslips, stimulated with IL-18 (50 ng ml⁻¹; 1 min, 5 min, 10 min), fixed with 4% PFA, incubated with 5% normal donkey serum (Sigma-Aldrich), 2% BSA, 0.05% Tween in PBS2+ (pH 7.4) (blocking buffer), and then with biotin-conjugated goat polyclonal anti-human IL-1R8 antibody or biotin-conjugated normal goat IgG (all from R&D Systems) and mouse monoclonal anti-IL-18Rα (Clone 70625; R&D Systems) or mouse IgG1 (Invitrogen), all diluted at 5 μg ml⁻¹ in blocking buffer, followed by Alexa Fluor 488-conjugated donkey anti-goat IgG antibody and Alexa Fluor 555 donkey anti-mouse IgG antibody (both from Molecular Probes). Mowiol was used as mounting medium. STED xyz images were acquired in a unidirectional mode with a Leica SP8 STED3X confocal microscope system. Alexa Fluor 488 was excited with a 488 nm argon laser and emission collected from 505 to 550 nm applying a gating between 0.4 and 7 ns to avoid collection of reflection and autofluorescence. Alexa Fluor 555 was excited with a 555/547 nm-tuned white light laser and emission collected from 580 to 620 nm. Line sequential acquisition was applied to avoid fluorescence overlap. The 660 nm CW-depletion laser (80% of power) was used for both excitations. […]

binding result: binds
B1: Interleukin-1 receptor 8 (IL-1R8), human (receptor)
chain: MPGVCDRAPDFLSPSEDQVLRPALGSSVALNCTAWVVSGPHCSLPSVQWLKDGLPLGIGGHYSLHEYSWVKANLSEVLVSSVLGVNVTSTEVYGAFTCSIQNISFSSFTLQRAGPTSHVAAVLASLLVLLALLLAALLYVKCRLNVLLWYQDAYGEVEINDGKLYDAYVSYSDCPEDRKFVNFILKPQLERRRGYKLFLDDRDLLPRAEPSADLLVNLSRCRRLIVVLSDAFLSRAWCSHSFREGLCRLLELTRRPIFITFEGQRRDPAHPALRLLRQHRHLVTLLLWRPGSVTPSSDFWKEVQLALPRKVQYRPVEGDPQTQLQDDKDPMLILRGRVPEGRALDSEVDPDPEGDLGVRGPVFGEPSAPPHTSGVSLGESRSSEVDVSDLGSRNYSARTDFYCLVSKDDM
notes: Endogenous IL-1R8 on human primary NK cells; NP_001128525.1, NP_001128526.1, NP_068577.2); also called SIGIRR; single immunoglobulin IL-1R-related receptor
